In US20050058634A1:

How the values were obtained:
[1] = biological target: Soluble cation-independent mannose 6-phosphate receptor (CI-MPR) purified from fetal bovine serum, coupled to Affigel-15 beads (CI-MPR column) (bovine (fetal bovine serum)) (UniProt P08169); assay: CI-MPR column fractionation; enzyme activity of fraction (starting material 1.41)
[2] = biological target: Soluble cation-independent mannose 6-phosphate receptor (CI-MPR) purified from fetal bovine serum, coupled to Affigel-15 beads (CI-MPR column) (bovine (fetal bovine serum)) (UniProt P08169); assay: CI-MPR column fractionation, beta-glucuronidase activity (FIG. 6)
[3] = biological target: Soluble cation-independent mannose 6-phosphate receptor (CI-MPR) purified from fetal bovine serum, coupled to Affigel-15 beads (CI-MPR column) (bovine (fetal bovine serum)) (UniProt P08169); assay: CI-MPR column fractionation; enzyme activity of fraction eluted with 5 mM M6P (starting material 1.41)

UniProt P08169, sequence (P08169 45-2313 limits assumed): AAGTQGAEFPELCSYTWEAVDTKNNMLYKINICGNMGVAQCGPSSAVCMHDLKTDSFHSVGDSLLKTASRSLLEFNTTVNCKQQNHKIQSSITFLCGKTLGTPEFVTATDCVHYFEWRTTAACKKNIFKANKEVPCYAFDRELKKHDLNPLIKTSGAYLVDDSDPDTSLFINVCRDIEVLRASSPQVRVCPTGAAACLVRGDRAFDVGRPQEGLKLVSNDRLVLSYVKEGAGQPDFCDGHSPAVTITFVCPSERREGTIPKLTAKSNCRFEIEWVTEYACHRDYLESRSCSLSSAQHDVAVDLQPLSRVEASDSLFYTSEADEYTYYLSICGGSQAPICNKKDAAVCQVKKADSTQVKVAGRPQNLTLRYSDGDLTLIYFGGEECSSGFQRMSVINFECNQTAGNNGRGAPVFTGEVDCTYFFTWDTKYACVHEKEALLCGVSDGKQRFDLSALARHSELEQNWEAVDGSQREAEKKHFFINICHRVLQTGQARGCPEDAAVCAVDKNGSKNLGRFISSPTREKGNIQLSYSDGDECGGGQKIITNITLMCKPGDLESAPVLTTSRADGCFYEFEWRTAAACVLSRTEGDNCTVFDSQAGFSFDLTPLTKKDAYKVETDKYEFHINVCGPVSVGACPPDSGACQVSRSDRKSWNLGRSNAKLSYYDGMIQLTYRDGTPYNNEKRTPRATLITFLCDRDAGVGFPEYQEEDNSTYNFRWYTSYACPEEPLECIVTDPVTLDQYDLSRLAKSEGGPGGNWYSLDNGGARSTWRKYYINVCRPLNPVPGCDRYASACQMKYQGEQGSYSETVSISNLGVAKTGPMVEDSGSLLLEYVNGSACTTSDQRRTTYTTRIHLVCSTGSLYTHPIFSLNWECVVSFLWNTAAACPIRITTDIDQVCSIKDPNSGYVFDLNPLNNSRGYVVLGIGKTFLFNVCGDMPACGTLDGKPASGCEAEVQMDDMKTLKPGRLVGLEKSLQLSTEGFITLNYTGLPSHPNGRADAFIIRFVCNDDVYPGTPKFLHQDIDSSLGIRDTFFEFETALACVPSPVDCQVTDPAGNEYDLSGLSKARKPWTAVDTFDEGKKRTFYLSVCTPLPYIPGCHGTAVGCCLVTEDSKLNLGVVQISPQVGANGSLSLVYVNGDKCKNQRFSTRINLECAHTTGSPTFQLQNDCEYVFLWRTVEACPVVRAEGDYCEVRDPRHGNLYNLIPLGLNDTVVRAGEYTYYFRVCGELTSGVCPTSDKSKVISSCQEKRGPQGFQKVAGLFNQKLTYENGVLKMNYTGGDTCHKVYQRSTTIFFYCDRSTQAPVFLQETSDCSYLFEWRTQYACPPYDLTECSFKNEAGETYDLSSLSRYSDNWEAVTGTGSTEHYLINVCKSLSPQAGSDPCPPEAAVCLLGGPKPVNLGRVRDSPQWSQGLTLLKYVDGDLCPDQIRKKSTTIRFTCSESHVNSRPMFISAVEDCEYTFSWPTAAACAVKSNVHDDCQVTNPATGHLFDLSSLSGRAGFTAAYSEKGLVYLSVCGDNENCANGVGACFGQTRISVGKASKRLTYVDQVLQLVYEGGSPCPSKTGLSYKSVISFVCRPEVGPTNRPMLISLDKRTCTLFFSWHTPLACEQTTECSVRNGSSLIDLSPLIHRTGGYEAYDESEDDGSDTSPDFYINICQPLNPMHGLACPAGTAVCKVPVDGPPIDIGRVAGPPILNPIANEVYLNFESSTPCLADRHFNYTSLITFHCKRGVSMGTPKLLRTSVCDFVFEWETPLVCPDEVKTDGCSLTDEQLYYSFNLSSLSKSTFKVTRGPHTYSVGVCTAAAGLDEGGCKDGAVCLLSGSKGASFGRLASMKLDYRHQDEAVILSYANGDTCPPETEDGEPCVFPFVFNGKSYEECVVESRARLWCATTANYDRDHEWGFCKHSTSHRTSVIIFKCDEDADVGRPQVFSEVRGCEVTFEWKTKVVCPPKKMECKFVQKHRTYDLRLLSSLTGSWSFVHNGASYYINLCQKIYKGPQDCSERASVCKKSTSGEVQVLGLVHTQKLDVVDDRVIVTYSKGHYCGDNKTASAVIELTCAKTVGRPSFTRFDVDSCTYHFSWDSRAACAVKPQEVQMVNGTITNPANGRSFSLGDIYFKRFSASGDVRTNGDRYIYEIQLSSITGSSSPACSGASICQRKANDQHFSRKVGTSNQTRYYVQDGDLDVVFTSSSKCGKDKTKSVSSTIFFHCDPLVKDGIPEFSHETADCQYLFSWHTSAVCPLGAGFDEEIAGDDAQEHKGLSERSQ

O.D. at 400 nm (beta-glucuronidase activity in column flow-through, unbound) [1]: 0.27 OD 400 nm
O.D. at 400 nm (beta-glucuronidase activity in final wash) [1]: 0 OD 400 nm
percent of starting activity in the M6P elution fraction [2]: 5%
percent of starting activity in the flow through [2]: 19%
O.D. at 400 nm (beta-glucuronidase activity in M6P elution, bound) [3]: 0.06 OD 400 nm
Substance: oxidized beta-glucuronidase conjugated with phosphopentamannose-hydrazine (enzyme)
